Results on 12 substances are retold here after article doi:10.1101/2025.08.25.672233.

The target of the assay is soluble mouse MXRA8-Fc (UniProt Q9DBV4). To be noted: read off a plot; for other: 1/IC50: mean of three biological replicates, parent: est. 2.6; for screen value: parent: est. 0.
UniProt Q9DBV4, sequence (Q9DBV4 22-336): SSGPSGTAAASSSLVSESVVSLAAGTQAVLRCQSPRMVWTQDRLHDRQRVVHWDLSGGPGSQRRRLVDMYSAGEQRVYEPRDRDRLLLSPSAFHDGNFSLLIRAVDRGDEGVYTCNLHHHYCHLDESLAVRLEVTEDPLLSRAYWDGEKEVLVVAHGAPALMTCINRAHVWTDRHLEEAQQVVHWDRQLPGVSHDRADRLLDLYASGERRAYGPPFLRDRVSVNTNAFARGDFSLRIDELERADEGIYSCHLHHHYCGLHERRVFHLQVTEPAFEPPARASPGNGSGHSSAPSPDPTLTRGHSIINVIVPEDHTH

For “CHIKV envelope proteins (E3-E2-6K-E1) from the 181/25 strain, unmutated, on pseudovirus E1:D158R”, the other: 1/IC50 amounted to 15 and the screen value came out at 1.9.

Regarding “CHIKV envelope proteins (E3-E2-6K-E1) from the 181/25 strain, unmutated, on pseudovirus E1:K132N”, the other: 1/IC50 came out at 0.3 and the screen value is -2.6.

For the substance “CHIKV envelope proteins (E3-E2-6K-E1) from the 181/25 strain, unmutated, on pseudovirus E1:K157C”, the other: 1/IC50 turned out to be 0.71 and the screen value is -1.7.

Turning to “CHIKV envelope proteins (E3-E2-6K-E1) from the 181/25 strain, unmutated, on pseudovirus E2:A157S”, the other: 1/IC50 is 9.4 and the screen value came to 0.85.

For “CHIKV envelope proteins (E3-E2-6K-E1) from the 181/25 strain, unmutated, on pseudovirus E2:E24Y”, the other: 1/IC50 amounted to 1.1 and the screen value is 1.9.

Regarding “CHIKV envelope proteins (E3-E2-6K-E1) from the 181/25 strain, unmutated, on pseudovirus E2:H18A”, the other: 1/IC50 came to 3.2 and the screen value stood at 1.6.

With “CHIKV envelope proteins (E3-E2-6K-E1) from the 181/25 strain, unmutated, on pseudovirus E2:I121E”, the other: 1/IC50 worked out at 0.05 and the screen value is -3.1.

Take “CHIKV envelope proteins (E3-E2-6K-E1) from the 181/25 strain, unmutated, on pseudovirus E2:K120D”: the other: 1/IC50 is 0.17 and the screen value is -2.5.

On to “CHIKV envelope proteins (E3-E2-6K-E1) from the 181/25 strain, unmutated, on pseudovirus E2:K189Y”, for which the other: 1/IC50 stood at 140 and the screen value was determined as 2.4.

Regarding “CHIKV envelope proteins (E3-E2-6K-E1) from the 181/25 strain, unmutated, on pseudovirus E2:Q158T”, the other: 1/IC50 is 2.1 and the screen value is -0.15.

With “CHIKV envelope proteins (E3-E2-6K-E1) from the 181/25 strain, unmutated, on pseudovirus E2:R119K”, the other: 1/IC50 stood at 0.05 and the screen value was -3.5.

Turning to “CHIKV envelope proteins (E3-E2-6K-E1) from the 181/25 strain, unmutated, on pseudovirus E2:R178S”, the other: 1/IC50 came out at 1 and the screen value was -2.3.
